Assay results as given in paper PMC7377350.

Target: T1, CREB B-ZIP domain (UniProt P16220 269-327)
T1 sequence: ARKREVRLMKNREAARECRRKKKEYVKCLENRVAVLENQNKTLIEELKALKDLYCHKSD
Test: EMSA

B1: CREB (CRE) 28-mer (dsDNA)
DNA 1: GTCAGTCAGATGACGTCATATCGGTCAG
DNA 2: CTGACCGATATGACGTCATCTGACTGAC
- binding result: binds
